Source: patent US20130058934A1 (Novartis, published 2013)

Legend:
LRP6 PD1/2 = molecular target: T1, LRP6 PD1/2 (human, UniProt O75581 19-629); test: Biacore T-100 SPR, antibody captured by anti-human IgG Fc on a CM4 chip, PD1/2 injected; N = 4
T1 construct: range 19-629; Recombinant soluble fragment; also called Propeller Domains 1-2 of LRP6; recombinant LRP6 PD1/2
T1 sequence (looked up): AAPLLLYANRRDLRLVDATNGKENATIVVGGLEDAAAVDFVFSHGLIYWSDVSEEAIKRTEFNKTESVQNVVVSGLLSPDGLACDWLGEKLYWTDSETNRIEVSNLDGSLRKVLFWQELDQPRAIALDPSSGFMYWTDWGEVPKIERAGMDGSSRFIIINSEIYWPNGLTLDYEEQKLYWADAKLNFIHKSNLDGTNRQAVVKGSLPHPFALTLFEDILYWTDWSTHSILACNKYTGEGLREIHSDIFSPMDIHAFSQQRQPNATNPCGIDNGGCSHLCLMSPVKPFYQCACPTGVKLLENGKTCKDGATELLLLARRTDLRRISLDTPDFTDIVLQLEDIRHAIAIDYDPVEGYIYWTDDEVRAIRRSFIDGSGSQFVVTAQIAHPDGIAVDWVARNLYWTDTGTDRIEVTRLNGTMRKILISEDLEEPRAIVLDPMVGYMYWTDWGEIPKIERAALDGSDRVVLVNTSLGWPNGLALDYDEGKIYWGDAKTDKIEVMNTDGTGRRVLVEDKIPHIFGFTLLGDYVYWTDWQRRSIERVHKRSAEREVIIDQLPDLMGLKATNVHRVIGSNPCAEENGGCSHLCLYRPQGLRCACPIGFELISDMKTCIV
Description: The carboxymethyl dextran surface was activated with a 7 min injection of a 1:1 ratio of 0.4 M EDC (1-Ethyl-3-[3-dimethylaminopropyl]carbodiimide hydrochloride) and 0.1 M NHS(N-hydroxysuccinimide). […] PD1/2 and PD3/4 were prepared as two fold concentration series starting at 50 nM, and injected at 30 μl/min for 1 min. […] The surfaces were then regenerated two times with 10 mM glycine (pH 2.2). […] PD3/4 at a saturating concentration of 100 nM was then flowed over the surface at a flow rate of 30 μl/min for 30 min. A saturating concentration of 100 nM PD1/2 was injected immediately after the PD3/4. The dissociation constant (KD), association (kₒₙ), and dissociation (koff) rates were calculated from the baseline subtracted corrected binding curves using the BIAevaluation software (GE Healthcare).

human FcRn = human FcRn (human, UniProt P55899 24-297; P61769 21-119, limits assumed); test: Biacore, pH 6.0; human FcRn at pH 6.0, Biacore; parental IgG, not IgG-scFv
cynoFcRn = molecular target: T2, cynoFcRn (cynomolgus monkey, UniProt Q8SPV9); test: Biacore, cynoFcRn at pH 6.0
T2 construct: also called cynomolgus FcRn

Chain of human FcRn (P55899 24-297 limits assumed, form in doubt, chain 1 of 2): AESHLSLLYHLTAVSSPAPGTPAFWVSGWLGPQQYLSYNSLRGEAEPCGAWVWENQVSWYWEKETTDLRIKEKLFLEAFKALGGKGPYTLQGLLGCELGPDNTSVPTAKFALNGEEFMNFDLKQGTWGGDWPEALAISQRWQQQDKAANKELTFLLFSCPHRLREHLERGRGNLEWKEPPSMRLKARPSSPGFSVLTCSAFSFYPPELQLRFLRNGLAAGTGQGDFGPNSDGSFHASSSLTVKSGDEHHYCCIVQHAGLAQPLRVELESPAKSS
Chain of human FcRn (P61769 21-119 limits assumed, form in doubt, chain 2 of 2): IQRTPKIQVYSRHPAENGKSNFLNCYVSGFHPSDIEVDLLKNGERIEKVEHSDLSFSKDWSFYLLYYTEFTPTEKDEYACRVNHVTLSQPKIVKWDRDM

B1: MOR08168 hIgG1LALA (antibody)
heavy: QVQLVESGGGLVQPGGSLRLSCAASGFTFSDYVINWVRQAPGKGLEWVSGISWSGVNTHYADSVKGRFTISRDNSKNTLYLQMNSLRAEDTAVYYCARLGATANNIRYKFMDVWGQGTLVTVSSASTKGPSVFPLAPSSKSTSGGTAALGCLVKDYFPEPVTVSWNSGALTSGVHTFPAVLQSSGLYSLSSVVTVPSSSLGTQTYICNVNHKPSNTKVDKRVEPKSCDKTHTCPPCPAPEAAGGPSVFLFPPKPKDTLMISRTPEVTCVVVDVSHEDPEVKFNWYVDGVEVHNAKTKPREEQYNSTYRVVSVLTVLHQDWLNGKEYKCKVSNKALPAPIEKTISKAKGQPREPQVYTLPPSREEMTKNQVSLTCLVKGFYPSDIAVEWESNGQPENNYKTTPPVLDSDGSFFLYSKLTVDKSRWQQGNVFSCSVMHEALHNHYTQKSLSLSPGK
light: DIELTQPPSVSVAPGQTARISCSGDSLRNKVYWYQQKPGQAPVLVIYKNNRPSGIPERFSGSNSGNTATLTISGTQAEDEADYYCQSYDGQKSLVFGGGTKLTVLGQPKAAPSVTLFPPSSEELQANKATLVCLISDFYPGAVTVAWKADSSPVKAGVETTTPSKQSNNKYAASSYLSLTPEQWKSHRSYSCQVTHEGSTVEKTVAPTECS
notes: Human IgG1 LALA / lambda; also called Propeller 1 IgG (MOR08168); MOR08168 (propeller 1 antibody)
LRP6 PD1/2
  Kd: 1.08 nM
  koff: 9.05e-05 s⁻¹
  kon: 87200 M⁻¹ s⁻¹
Human FcRn
  Kd: 23 nM
cynoFcRn
  Kd: 280 nM
